{
  "source": "patent US20230250154A1",
  "about": "(CYTONICS, published 2023)",
  "assay_in_all_cases": "cell-based or functional assay",
  "key": {"MMP1": {"molecular_target": "T1, MMP1 (human, UniProt P03956 100-469, limits assumed)", "T1 sequence (looked up)": "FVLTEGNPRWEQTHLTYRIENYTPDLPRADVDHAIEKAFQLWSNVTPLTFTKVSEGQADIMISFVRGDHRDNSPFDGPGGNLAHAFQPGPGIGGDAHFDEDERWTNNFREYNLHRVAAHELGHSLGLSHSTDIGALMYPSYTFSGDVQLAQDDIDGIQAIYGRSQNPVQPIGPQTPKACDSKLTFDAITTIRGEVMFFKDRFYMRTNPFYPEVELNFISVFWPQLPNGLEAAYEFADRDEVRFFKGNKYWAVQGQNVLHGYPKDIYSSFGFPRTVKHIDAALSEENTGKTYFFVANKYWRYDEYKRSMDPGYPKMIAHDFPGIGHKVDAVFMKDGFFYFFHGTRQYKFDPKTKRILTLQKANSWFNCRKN"}, "MMP3": {"molecular_target": "MMP3 (human, UniProt P08254 100-477, limits assumed)", "sequence (P08254 100-477 limits assumed)": "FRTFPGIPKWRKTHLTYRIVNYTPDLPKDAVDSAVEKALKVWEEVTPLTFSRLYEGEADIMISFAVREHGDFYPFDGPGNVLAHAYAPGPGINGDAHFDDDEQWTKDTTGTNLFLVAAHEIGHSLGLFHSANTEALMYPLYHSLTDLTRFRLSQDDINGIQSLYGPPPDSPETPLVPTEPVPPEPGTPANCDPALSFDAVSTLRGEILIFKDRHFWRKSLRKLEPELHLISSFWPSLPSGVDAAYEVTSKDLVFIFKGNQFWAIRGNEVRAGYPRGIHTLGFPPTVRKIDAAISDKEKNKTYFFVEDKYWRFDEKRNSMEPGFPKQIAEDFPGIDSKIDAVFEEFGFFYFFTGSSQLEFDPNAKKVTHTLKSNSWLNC"}, "Cathepsin G": {"molecular_target": "T2, Cathepsin G (UniProt P08311 21-244)", "T2 sequence (looked up)": "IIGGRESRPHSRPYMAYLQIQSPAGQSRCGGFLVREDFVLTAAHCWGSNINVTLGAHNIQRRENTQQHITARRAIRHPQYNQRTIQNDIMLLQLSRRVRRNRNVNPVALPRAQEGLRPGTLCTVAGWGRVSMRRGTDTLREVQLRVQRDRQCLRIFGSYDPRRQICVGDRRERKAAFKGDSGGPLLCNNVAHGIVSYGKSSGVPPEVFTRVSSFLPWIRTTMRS"}, "MMP8": {"molecular_target": "MMP8 (human, UniProt P22894 101-467, limits assumed)", "sequence (P22894 101-467 limits assumed)": "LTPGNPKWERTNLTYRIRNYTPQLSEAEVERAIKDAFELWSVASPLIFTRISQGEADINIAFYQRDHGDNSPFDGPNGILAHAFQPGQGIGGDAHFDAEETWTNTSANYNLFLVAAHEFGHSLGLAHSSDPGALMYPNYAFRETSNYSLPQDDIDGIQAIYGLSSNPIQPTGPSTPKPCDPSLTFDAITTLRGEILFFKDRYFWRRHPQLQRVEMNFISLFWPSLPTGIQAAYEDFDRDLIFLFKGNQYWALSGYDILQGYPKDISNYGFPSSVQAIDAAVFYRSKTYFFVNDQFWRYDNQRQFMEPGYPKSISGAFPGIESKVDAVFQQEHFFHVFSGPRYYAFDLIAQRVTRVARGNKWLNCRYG"}, "MMP9": {"molecular_target": "MMP9 (human, UniProt P14780 107-707, limits assumed)", "sequence (P14780 107-707 limits assumed)": "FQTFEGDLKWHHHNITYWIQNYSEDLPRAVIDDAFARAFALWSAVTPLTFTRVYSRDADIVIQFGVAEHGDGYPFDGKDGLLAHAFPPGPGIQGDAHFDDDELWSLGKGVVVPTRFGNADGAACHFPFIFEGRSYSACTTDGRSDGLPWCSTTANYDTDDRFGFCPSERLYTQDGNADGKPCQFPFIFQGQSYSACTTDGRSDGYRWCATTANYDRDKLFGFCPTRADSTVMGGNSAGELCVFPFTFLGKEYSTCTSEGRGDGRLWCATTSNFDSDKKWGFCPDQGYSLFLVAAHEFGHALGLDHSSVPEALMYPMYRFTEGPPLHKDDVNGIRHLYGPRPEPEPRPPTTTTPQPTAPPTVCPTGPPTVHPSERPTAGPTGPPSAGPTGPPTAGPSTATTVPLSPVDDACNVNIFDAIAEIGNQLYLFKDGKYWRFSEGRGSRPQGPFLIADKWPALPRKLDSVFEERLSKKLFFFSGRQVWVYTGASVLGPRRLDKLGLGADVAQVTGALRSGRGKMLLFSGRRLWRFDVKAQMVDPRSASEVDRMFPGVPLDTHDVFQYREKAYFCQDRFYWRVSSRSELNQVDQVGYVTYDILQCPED"}, "ADAMTS5": {"molecular_target": "T3, ADAMTS5 (human, UniProt Q9UNA0 262-622, limits assumed)", "T3 sequence (looked up)": "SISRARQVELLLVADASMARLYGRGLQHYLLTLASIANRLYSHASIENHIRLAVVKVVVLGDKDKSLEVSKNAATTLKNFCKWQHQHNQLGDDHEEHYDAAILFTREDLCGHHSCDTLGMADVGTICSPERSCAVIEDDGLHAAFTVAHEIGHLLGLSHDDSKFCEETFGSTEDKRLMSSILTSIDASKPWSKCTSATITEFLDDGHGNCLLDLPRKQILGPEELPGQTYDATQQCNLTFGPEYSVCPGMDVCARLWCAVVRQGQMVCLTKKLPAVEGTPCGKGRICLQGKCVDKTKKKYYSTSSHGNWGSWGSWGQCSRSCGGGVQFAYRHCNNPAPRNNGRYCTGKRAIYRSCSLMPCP"}, "MMP2": {"molecular_target": "T4, MMP2 (human, UniProt P08253 110-660, limits assumed)", "T4 sequence (looked up)": "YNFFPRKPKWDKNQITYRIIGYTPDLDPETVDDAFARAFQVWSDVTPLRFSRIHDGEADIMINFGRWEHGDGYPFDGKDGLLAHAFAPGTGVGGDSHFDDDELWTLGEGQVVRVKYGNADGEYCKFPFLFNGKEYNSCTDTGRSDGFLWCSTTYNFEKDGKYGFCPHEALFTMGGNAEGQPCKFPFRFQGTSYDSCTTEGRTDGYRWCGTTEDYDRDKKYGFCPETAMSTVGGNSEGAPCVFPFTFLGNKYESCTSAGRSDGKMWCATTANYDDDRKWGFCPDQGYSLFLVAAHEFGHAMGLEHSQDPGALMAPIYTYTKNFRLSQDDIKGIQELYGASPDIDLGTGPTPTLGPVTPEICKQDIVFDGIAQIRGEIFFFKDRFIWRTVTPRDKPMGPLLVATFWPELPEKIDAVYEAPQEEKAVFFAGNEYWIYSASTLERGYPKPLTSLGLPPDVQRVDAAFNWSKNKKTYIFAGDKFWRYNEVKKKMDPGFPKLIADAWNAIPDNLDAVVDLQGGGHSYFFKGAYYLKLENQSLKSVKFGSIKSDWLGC"}, "ADAMTS4": {"molecular_target": "T5, ADAMTS4 (human, UniProt O75173 213-685, limits assumed)", "T5 sequence (looked up)": "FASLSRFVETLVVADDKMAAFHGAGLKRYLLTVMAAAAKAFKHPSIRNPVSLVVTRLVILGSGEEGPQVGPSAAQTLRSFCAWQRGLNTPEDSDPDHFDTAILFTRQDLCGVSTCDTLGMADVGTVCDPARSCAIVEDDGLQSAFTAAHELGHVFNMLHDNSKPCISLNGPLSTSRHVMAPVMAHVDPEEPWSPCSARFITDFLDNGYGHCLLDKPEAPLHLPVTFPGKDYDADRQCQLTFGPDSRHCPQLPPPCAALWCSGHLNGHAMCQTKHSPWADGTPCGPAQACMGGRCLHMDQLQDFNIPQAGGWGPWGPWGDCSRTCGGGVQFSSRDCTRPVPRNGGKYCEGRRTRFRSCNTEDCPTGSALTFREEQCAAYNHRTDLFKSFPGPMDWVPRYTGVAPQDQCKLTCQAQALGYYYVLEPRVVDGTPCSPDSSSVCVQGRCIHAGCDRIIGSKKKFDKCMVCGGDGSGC"}, "MMP7": {"molecular_target": "T6, MMP7 (UniProt P09237 95-267, limits assumed)", "T6 sequence (looked up)": "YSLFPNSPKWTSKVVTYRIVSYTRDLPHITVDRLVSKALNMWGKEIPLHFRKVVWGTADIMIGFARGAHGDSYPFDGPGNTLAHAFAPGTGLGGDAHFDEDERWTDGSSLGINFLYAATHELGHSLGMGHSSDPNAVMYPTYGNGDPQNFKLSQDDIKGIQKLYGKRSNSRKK"}, "MMP13": {"molecular_target": "MMP13 (human, UniProt P45452 104-471, limits assumed)"}, "Elastase": {"molecular_target": "Elastase"}},
  "data": [
    {"binder": "Variant A2M, bait region SEQ ID NO 28 (other) SVSGKPQYMVLVPSLLHTETTEKGCVLLSYLNETVTVSASLESVRGNRSLFTDLEAENDVLHCVAFAVPKSSSNEEVMFLTVQVKGPTQEFKKRTTVMVKNEDSLVFVQTDKSIYKPGQTVKFRVVSMDENFHPLNELIPLVYIQDPKGNRIAQWQSFQLEGGLKQFSFPLSSEPFQGSYKVVVQKKSGGRTEHPFTVEEFVLPKFEVQVTVPKIITILEEEMNVSVCGLYTYGKPVPGHVTVSICRKYSDASDCHGEDSQAFCEKFSGQLNSHGCFYQQVKTKVFQLKRKEYEMKLHTEAQIQEEGTVVELTGRQSSEITRTITKLSFVKVDSHFRQGIPFFGQVRLVDGKGVPIPNKVIFIRGNEANYYSNATTDEHGLVQFSINTTNVMGTSLTVRVNYKDRSPCYGYQWVSEEHEEAHHTAYLVFSPSKSFVHLEPMSHELPCGHTQTVQAHYILNGGTLLGLKKLSFYYLIMAKGGIVRTGTHGLLVKQEDMKGHFSISIPVKSDIAPVARLLIYAVLPTGDVIGDSAKYDVENCLANKVDLSFSPSQSLPASHAHLRVTAAPQSVCALRAVDQSVLLMKPDAELSASSVYNLLPEKDLTGFPGPLNDQDDEDCINRHNVYINGITYTPVSSTNEKDMYSFLEDMGLKAFTNSKIRKPKMCPQLEQYEMHGPEGEGEGEFRAAPFLTAIPENFFGVSEDLVVQISELEGRGSPHTKLRKYFPETWIWDLVVVNSAGVAEVGVTVPDTITEWKAGAFCLSEDAGLGISSTASLRAFQPFFVELTMPYSVIRGEAFTLKATVLNYLPKCIRVSVQLEASPAFLAVPVEKEQAPHCICANGRQTVSWAVTPKSLGNVNFTVSAEALESQELCGTEVPSVPEHGRKDTVIKPLLVEPEGLEKETTFNSLLCPSGGEVSEELSLKLPPNVVEESARASVSVLGDILGSAMQNTQNLLQMPYGCGEQNMVLFAPNIYVLDYLNETQQLTPEIKSKAIGYLNTGYQRQLNYKHYDGSYSTFGERYGRNQGNTWLTAFVLKTFAQARAYIFIDEAHITQALIWLSQRQKDNGCFRSSGSLLNNAIKGGVEDEVTLSAYITIALLEIPLTVTHPVVRNALFCLESAWKTAQEGDHGSHVYTKALLAYAFALAGNQDKRKEVLKSLNEEAVKKDNSVHWERPQKPKAPVGHFYEPQAPSAEVEMTSYVLLAYLTAQPAPTSEDLTSATNIVKWITKQQNAQGGFSSTQDTVVALHALSKYGAATFTRTGKAAQVTIQSSGTFSSKFQVDNNNRLLLQQVSLPELPGEYSMKVTGEGCVYLQTSLKYNILPEKEEFPFALGVQTLPQTCDEPKAHTSFQISLSVSYTGSRSASNMAIVDVKMVSGFIPLKPTVKMLERSNHVSRTEVSSNHVLIYLDKVSNQTLSLFFTVLQDVPVRDLKPAIVKVYDYYETDEFAIAEYNAPCSKDLGNADYKDDDDKGASHHHHHH", "values": [
      {"measurement": "Protease Inhibition (% of WT)", "setting": "MMP1", "result": "67 % of WT"},
      {"measurement": "Protease Inhibition (% of WT)", "setting": "MMP3", "result": "129 % of WT"},
      {"measurement": "Protease Inhibition (% of WT)", "setting": "Cathepsin G", "result": "69 % of WT"},
      {"measurement": "Protease Inhibition (% of WT)", "setting": "MMP8", "result": "38 % of WT"},
      {"measurement": "Protease Inhibition (% of WT)", "setting": "MMP9", "result": "14 % of WT"},
      {"measurement": "Protease Inhibition (% of WT)", "setting": "ADAMTS5", "result": "398 % of WT"},
      {"measurement": "Protease Inhibition (% of WT)", "setting": "MMP2", "result": "36 % of WT"},
      {"measurement": "Protease Inhibition (% of WT)", "setting": "ADAMTS4", "result": "180 % of WT"},
      {"measurement": "Protease Inhibition (% of WT)", "setting": "MMP7", "result": "94 % of WT"},
      {"measurement": "Protease Inhibition (% of WT)", "setting": "MMP13", "result": "90 % of WT"},
      {"measurement": "Protease Inhibition (% of WT)", "setting": "Elastase", "result": "75 % of WT"}
    ]},
    {"binder": "Variant A2M, bait region SEQ ID NO 30 (other) SVSGKPQYMVLVPSLLHTETTEKGCVLLSYLNETVTVSASLESVRGNRSLFTDLEAENDVLHCVAFAVPKSSSNEEVMFLTVQVKGPTQEFKKRTTVMVKNEDSLVFVQTDKSIYKPGQTVKFRVVSMDENFHPLNELIPLVYIQDPKGNRIAQWQSFQLEGGLKQFSFPLSSEPFQGSYKVVVQKKSGGRTEHPFTVEEFVLPKFEVQVTVPKIITILEEEMNVSVCGLYTYGKPVPGHVTVSICRKYSDASDCHGEDSQAFCEKFSGQLNSHGCFYQQVKTKVFQLKRKEYEMKLHTEAQIQEEGTVVELTGRQSSEITRTITKLSFVKVDSHFRQGIPFFGQVRLVDGKGVPIPNKVIFIRGNEANYYSNATTDEHGLVQFSINTTNVMGTSLTVRVNYKDRSPCYGYQWVSEEHEEAHHTAYLVFSPSKSFVHLEPMSHELPCGHTQTVQAHYILNGGTLLGLKKLSFYYLIMAKGGIVRTGTHGLLVKQEDMKGHFSISIPVKSDIAPVARLLIYAVLPTGDVIGDSAKYDVENCLANKVDLSFSPSQSLPASHAHLRVTAAPQSVCALRAVDQSVLLMKPDAELSASSVYNLLPEKDLTGFPGPLNDQDDEDCINRHNVYINGITYTPVSSTNEKDMYSFLEDMGLKAFTNSKIRKPKMCPQLEQYEMHGPEGEGEGPRYLTAIPENFFGVSEDLVVQISELEGRGSPHTKLRKYFPETWIWDLVVVNSAGVAEVGVTVPDTITEWKAGAFCLSEDAGLGISSTASLRAFQPFFVELTMPYSVIRGEAFTLKATVLNYLPKCIRVSVQLEASPAFLAVPVEKEQAPHCICANGRQTVSWAVTPKSLGNVNFTVSAEALESQELCGTEVPSVPEHGRKDTVIKPLLVEPEGLEKETTFNSLLCPSGGEVSEELSLKLPPNVVEESARASVSVLGDILGSAMQNTQNLLQMPYGCGEQNMVLFAPNIYVLDYLNETQQLTPEIKSKAIGYLNTGYQRQLNYKHYDGSYSTFGERYGRNQGNTWLTAFVLKTFAQARAYIFIDEAHITQALIWLSQRQKDNGCFRSSGSLLNNAIKGGVEDEVTLSAYITIALLEIPLTVTHPVVRNALFCLESAWKTAQEGDHGSHVYTKALLAYAFALAGNQDKRKEVLKSLNEEAVKKDNSVHWERPQKPKAPVGHFYEPQAPSAEVEMTSYVLLAYLTAQPAPTSEDLTSATNIVKWITKQQNAQGGFSSTQDTVVALHALSKYGAATFTRTGKAAQVTIQSSGTFSSKFQVDNNNRLLLQQVSLPELPGEYSMKVTGEGCVYLQTSLKYNILPEKEEFPFALGVQTLPQTCDEPKAHTSFQISLSVSYTGSRSASNMAIVDVKMVSGFIPLKPTVKMLERSNHVSRTEVSSNHVLIYLDKVSNQTLSLFFTVLQDVPVRDLKPAIVKVYDYYETDEFAIAEYNAPCSKDLGNADYKDDDDKGASHHHHHH", "values": [
      {"measurement": "Protease Inhibition (% of WT)", "setting": "MMP1", "result": "67 % of WT"},
      {"measurement": "Protease Inhibition (% of WT)", "setting": "MMP3", "result": "< 100 % of WT"},
      {"measurement": "Protease Inhibition (% of WT)", "setting": "Cathepsin G", "result": "104 % of WT"},
      {"measurement": "Protease Inhibition (% of WT)", "setting": "MMP8", "result": "29 % of WT"},
      {"measurement": "Protease Inhibition (% of WT)", "setting": "MMP9", "result": "18 % of WT"},
      {"measurement": "Protease Inhibition (% of WT)", "setting": "ADAMTS5", "result": "296 % of WT"},
      {"measurement": "Protease Inhibition (% of WT)", "setting": "MMP2", "result": "3 % of WT"},
      {"measurement": "Protease Inhibition (% of WT)", "setting": "ADAMTS4", "result": "93 % of WT"},
      {"measurement": "Protease Inhibition (% of WT)", "setting": "MMP7", "result": "91 % of WT"},
      {"measurement": "Protease Inhibition (% of WT)", "setting": "MMP13", "result": "96 % of WT"},
      {"measurement": "Protease Inhibition (% of WT)", "setting": "Elastase", "result": "55 % of WT"}
    ]}
  ]
}
